In this experiment the target is MASP-2-T1 (aa 1-414) (human) (UniProt O00187). As to the kind of experiment: ELISA, antibody titrated on truncated human MASP-2 T1 (aa 1-414). For orientation: ELISA stands for enzyme-linked immunosorbent assay.

We go through one substance from patent US20250154284A1.

By EC50 (read off the curve) is commonly meant the concentration at which the effect is half-maximal. Higher therefore signals lower potency in that assay. benchmark antibody narsoplimab registered an EC50 (read off the curve) of 0.01 µg/mL.
